Experiment: soluble on expression in E. coli; label from the status in PepcDB or PDB records

| Sequence | soluble on expression in E. coli |
| --- | --- |
| MKLGVVTRKGKRQDDIRMFSQFFEVKVYEIPEELPELIDEPAEILRLPDDFDVDMIVSFAAHPDINLELIKQAAERGIGLVIISGGAKGGAYKQLKEEGEKRGVRVVWEEICCATPKVEDERTREFFEHFGAPEVEVEVENGKVKDVRVKRSAFCGATYYVAEKIKGLSVEEAPTKAGYYTQIYPCLAPRGHEGGIHKAARAHKRAVEKAIEKSK | not soluble |
| MYLKARQDELTESTIQSQEYRLEAFEQFCREEGIENLNDLSGRDLYAYRVWRREGNGKGRDEIEPITLRGQLATVRSFLRFAAEVDAVPEDLRTKVPLPTILEHHHHHH | not soluble |
| MKRIQEIQQNLERLAEMDEHLEQCEEWNVVAQEIVQKLSTIRKEVERSAAPTPLLLTPPGSCGSGSIYSDISSEMTNVYTEAVEAYDQQIYSRCVRLVEGANRESPVDMCLISLAHHSYAEMVNAASGSDDAMKFAKWWAEFLDSVEAGRGHSEKIELLDYEAVAYEKIVKLGGVADVEKLIEVVVRSYEMVTLLNRPYHILSLQKLFRLTNVLSSSEVDLESDAFSSAKTVVLTGIQNVLRDRKKFAQLGKFNEHNMKIAMRRTAQPDFRVRYCEKR | soluble |
| RGRLKVFLGAAPGVGKTYAMLQAAHAQLRQGVRVMAGVVETHGRAETEALLNGLPQQPLLRTEYRGMTLEEMDLDALLKAAPSLVLVDELAHTNAPGSRHTKRWQDIQELLAAGIDVYTTVNVQHLESLNDQVRGITGVQVRETLPDWVLQEAFDLVLIDLPPRELLERLRDGKVYVPEQARAAIDAFFTQTNLTALREMAMQTAAAQVDNDLAQGYRQLGQSAP | soluble |
| MGSDKIHHHHHHMDDGELEEVFFDEIETIAGKIYLGRIEKIVPGLEAAFVKIGKGRNAFLKLSEINEAYRKTVLKGQEVKEGQKILVQVKKDASGKKGPQVTPQIGIADRFVVIFPFKKVIGVSRKIEDASERRRLRTIAFSLRKKYGVGVIMRTAAEGVDEEEIIKNFERALEKWNQVLQKFRRSRKPKLLYEEDPVEQIIKEKVNSKIDKLIYNDRSLLETLQKYLQNLPKKPEIEYVEGDLFEKFSVYERLKKLLSRTVPLKSGGNIVIDRTEALTVIDVNSESYTDAENQEELALKTNMEAIEEIVRQLILRNIGGIVVIDFIKQKDPKSYEKLLSRFKEVAKRDGTRIEIFGFTNLGLLEITRKRTTRPLDTLLFTRCPVCSGTGKVLSQKILLKRIREDLKKLKDFEEVTLKVHPNMSGYFKREDIKKLQKEFKVKLNLDYGWHDPNSYEIKAKTKKGGK | not soluble |
| MGSDKIHHHHHHMSVVDFSKLYPDNRQEGETVLRQAQLVMLRMLKIIDYICRKHDISYWMCSGTLLGAVRHKGFIPWDDDLDICMIREDYERFVEIAVNEFPEDMMLQTRETDPHYHYLPLPCKVRDKKSFILSPGYEDEECEKGLFIDIFPMDRYHKQKLPFMFEKMVKVYNTFICKSLDAIYFKDESIDKKILAFFHPVFHKLVLQYMKFAKKLIDKNRGLGTDCRLGHGFDTLWKRYLRFDDIFPVVEIDFEDSKFFAPHRPDVYLTTLYGPNYMTPPPEKQRLAAQHAHEIKPII | not soluble |
| MVSEQHAVDICLDKLRFYEVLSAHGFPVVPTALSLAELDDGDYVVKERYGAGATNIGLRLTKEEANRHAQKLEAPVFQPFIAGAEFSIDLYMTRTGRVKGAVARTREYVVNGESQITTTIRNEKLEDMCIAVASYLRLYGHAVMQVIIDYEGQFHLIECNPRFGGASTVSLEAGLDSFYWFFLESQGGDLDDYPFSRSMKEKRQIRYPADFVIDL | not soluble |
| MDIKINDITLGNNSPFVLFGGICVLESLDSTLQTCAHYVEVTRKLGIPYIFKASFDKANRSSIHSYRGVGLEEGLKIFEKVKAEFGIPVITDVHEPHQCQPVAEVCDVIQLPAFLARQTDLVVAMAKTGNVVNIKKPQFLSPSQMKNIVEKFHEAGNGKLILCERGSSFGYDNLVVDMLGFGVMKQTCGNLPVIFDVTHSLQTRDAGSAASGGRRAQALDLALAGMATRLAGLFLESHPDPKLAKCEGASALPLHLLEDFLIRIKALDDLIKSQPILTIE | soluble |
| MSLRGIRMKDYDLIVIGTGSGMNYVNSIIDSNPKMKIAVIDKDEPGGICLTRGCIPSKLLLYPAELVRDLETAPLFGIKLEIKDIEFRTIMERMRKRIGEDIEMIRQGLTENDYLDYYPETAEFISPYTLKAGDEILHSEMIFLCTGSKPAVPPVRGLEEAGYLTSDTVLGLNECPKSLAILGGSYIGAEYGHFFSAMGAEVTVIGRNQHFLPQEEPEVSELARIKMSEYMRILTNHEAIEVRKEKGGQKTVIAKDRDSGEETEVTADEILVATGRAPNNDILHPEKAGIKTDPHGWILVNEYLETSQPNIWAFGDANGKYLLKHVGNYESGIVYLNAIMQEKVKVDYHAVPHAVFSYPEIAGVGMSEKEAIEEFGEKRVIIGFKLFEDTAKGSAMETRDYFVKVILDGLEDKILGAHIIGPHASVLIHQIIPLMYTASRSAKPMMQMMDIHPALSEVVKRAFYSRLSPEHYHHVMKHLGLEDEDSVEGHHHHHH | soluble |
| MSLDGEQTTREPVLKAMFLADTHLLGEFLGHWLDKLRREWQMERAFQTALWLLQPEVVFILGDIFDEGKWSTPEAWADDVERFQKMFRHPSHVQLKVVAGNHDIGFHYEMNTYKVERFEKVFSSERLFSWKGINFVMVNSVALNGDGCGICSETEAELIEVSHRLNCSREARGSSRCGPGPLLPTSAPVLLQHYPLYRRSDANCSGEDAAPAEERDIPFKENYDVLSREASQKLLWWLQPRLVLSGHTHSACEVHHGGRVPELSVPSFSWRNRNNPSFIMGSITPTDYTLSKCYLPREEGHHHHHH | not soluble |
| MPQVQSWFPVQKQPTLAVTFTPLPQLSHAHLPLPPSHLVTKTDAMFQHQLLPTQLQPFPPNHTPLLLLLTVTTMAVTPRLSLLNVLKKLQQPPFLQNHTLLLPLLTVTTTAVTPRLSLPRLPNKHHWPLAQSPSLLLQLLILLLPAPSLVLSFNPKVWLLV | not soluble |
| MGSDKIHHHHHHMSQLDMKMKLKQYEQTVIEYLGAQGGHFIVASDDQTFVGILRTTLLKQLAISGDPLTSVTDPDYILKVIRDTSLRRKHLVVFIERMMQGKDTSMLVRQMKNTFANVKIIILTGETERQRLVLLHEIGADNFISKPISINTLIEKIAFTIKPQGKLGQLIDAAKALVAQGNFETALKAARKILEVKPNSAAGYLVMGDAWQGLGKLDKARESFEQASEHANLYMEPLKKLAELHKLTGDMNERLRYLERLDQLSPLNVERKVDMGEIHVELGNEERAEELFETAVQQATKDALNYIGEISEKIAAVYSSRDPHKAEKYYRQALDAKGSHLDHTDIATFNRLGIALRRQGKWQQAIEEYEKALHITPDDPNLMYNMSMAYAEGRQFDKACSIVMRIRQITPSFGSMDKTLSYNMGIIFSRGRQPADARVLFENALRLDPSFEKAQKALENLES | not soluble |
| MKLTGKQTWVFEHPIFVNSAGTAAGPKEKDGPLGSLFDKTYDEMHCNQKSWEMAERQLMEDAVNVALQKNNLTKDDIDLLLAGDLLNQNVTANYVARHLKIPFLCMFGACSTSMETVAVASALVDGGFAKRALAATSSHNATAERQFRYPTEYGGQKPDTATSTVTGSGAVVISQTPGDIQITSATVGKVSDLGITDPFDMGSAMAPAAADTIKQHFKDLNRTADDYDLILTGDLSGVGSPIVKDILKEDGYPVGTKHDDCGLLIYTPDQQVFAGGSGCACSAVVTYSHIFKQLREGKLNRVFVVATGALLSPTMIQQKETIPTIAHGVVFERAGGASLEHHHHHH | soluble |
| MGVFTFQDEYTSTIAPAKLYKALVTDADIIIPKAVETIQSVEIVEGNGGPGTIKKLTFIEGGESKYVLHKIEAIDEANLGYNYSIVGGVGLPDTIEKISFETKLVEGANGGSIGKVTIKIETKGDAQPNEEEGKAAKARGDAFFKAIESYLSAHPDYN | soluble |
| MGSDKIHHHHHHMTTTTKKTAERLIKKYPNRRLYDTETSTYITLTDVKQLVLDQEDFKVIDAKSNEDLTRAILLQIILEEESGGLPMFSSSMLSQIIRFYGHAMQGMMGTYLEKNIQAFIDIQAKLADQSKNLYEGKAMNPEVWSQFMNMQAPMMQGMMTSYIEQSKNMFVQMQEQMQNQAKSMFATFPFTPGGAVNVAGGGNAPASPQGNPQGNPEPEKK | not soluble |
| MSRYNWNVPILEVLKEAVMVKKLNKIAVVGTPCVINAVYQMMATNNDLVEPFKKAIRLKISLFCFETFDYDKMLKKLKEVEVNPWDIKKMEIDKGKLIVSTIHGNVFNFKIDEMDEYVRKGCKVCRDFTGISSDISVGNVGTPEGYSTVLVRNKWGKGFFDRAVINGYVSVEGEASIDPVISLSKKKMERKDIEFLEHHHHHH | soluble |

Source: the DeepSol protein solubility set
